Source: the supplement of paper PMC9170038

Tested on: MS2 coat protein
Experiment: apparent KD of MS2 coat protein; designed switch direction (-1 OFF switch, 1 ON switch): -1; higher = weaker reporter binding
How it was run: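 The apparent KD reported per design is the median over clusters of curve fits to normalised cluster fluorescence. The RNA switches were transcribed on Illumina chips by stalled E. coli RNA polymerase. SNAP-549-labelled MS2 coat protein was titrated from 0.7 or 1.5 nM, doubling up to 3 µM, in Tris-HCl pH 7.5 buffer containing KCl, MgCl2, BSA, DTT, tRNA and Tween-20, with no input, 200 uM small-molecule ligand, or an oligonucleotide input.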

[1] = input ligand: microRNA oligo, concentration not stated
[2] = Eterna round: R95, input ligand: microRNA oligo, concentration not stated
[3] = Eterna round: R95, input ligand: FMN 200 uM
[4] = Eterna round: R95, input ligand: none

Row | Sequence | apparent KD of MS2 coat protein [1] | apparent KD of MS2 coat protein (input ligand: FMN 200 uM) | apparent KD of MS2 coat protein (input ligand: none) | apparent KD of MS2 coat protein [2] | apparent KD of MS2 coat protein [3] | apparent KD of MS2 coat protein [4]
1 | UUAUUAUAUGUAGGAUAUGCGUAUUAUUGUUAUGCAGAAGGACAUGAGGAUCACCCAUGUAUAUUAUUGUUGUAUAUUAUAUAU [Title] (Eterna round: R96, puzzle: Exclusion NG 1) | 20.7 nM |  |  |  |  | 
2 | UAAUAAUAGUGAGGAUAUAGUUAUUAUAAUAUACUAGAAGGUACACAUGAGGAUCACCCAUGUUUUAUAAUUUGUAAUUUAAAU [4th something] (Eterna round: R96, puzzle: Exclusion NG 1) | 18.4 nM |  |  |  |  | 
3 | UGGACACCAGUAGGAUAUGUAGGAUAUGUUGUUGAGGAUCACCCAACAAAUUAAACGACAGAAGGACAGAAGGACUAUUAUCCU [pwkr exNG2 2xFMN 1xF5.1] (Eterna round: R96, puzzle: Exclusion NG 2) | 57.8 nM | 52.5 nM | 60.8 nM |  |  | 
4 | ACAAGCUCUGUGGGUGGUGACAUGAGGAUCACCCAUGUUUUGCUCGUCUUGUGGGCCCGGGCCCGCGGCCCGGGCCC [-41.4, -70.3, A 12%] (Eterna round: R97, puzzle: Sensor, turn-off variant 1) |  | 516 nM | 978 nM |  |  | 
5 | AUUAUAUAGAAAGGAUAUAGAAUAUUAUUUUAACAUGAGGAUCACCCAUGUAACCUUAUGUGUAGCUAGAAGGUUCAUUUAUUA [Title] (Eterna round: R96, puzzle: Exclusion NG 2) | 52.5 nM |  |  |  |  | 
6 | CCAUGCAGUGUGAGGAUAUGCUGGUCCUUGGAUCAGCAGAAGGCACAUGAGGAUCACCCAUGUGAAUAGCGUGG [Mat - Exclusion 4 - JL Mod - D84] (puzzle: Brourd's mod of Exclusion 4) |  |  |  | 36.6 nM |  | 
7 | GUAGAGUCAGGAUAUACGAGAUCGAAAGAUCGGCGAUCCAAACAUGAGGAUCACCCAUGUAGAAGGGACUCUAC [Eli x2 4.004] (Eterna round: R97, puzzle: Exclusion 2) |  | 579 nM | 41 nM |  |  | 
8 | GCAGUGCGAGGAUAUACAUGAGGAUCACCCAUGUGAGAGAAAUAAGUGAGGAAGAAAAGUAGAAGGCGCGUUGG [Mat - Exclusion 3 - Mod of Salish D69] (puzzle: Exclusion 3) |  |  |  | 40.8 nM | 95.2 nM | 69.1 nM
9 | AGGAAGCAAGGAUAUACGAGGAGAAGGUGUCCAUCUAAAGGACAUGAGGAUCACCCAUGUAGAAGGUGCGAGAA [JR_Exclu2_Sub049] (puzzle: Exclusion 2) |  |  |  | 210 nM | 49.6 nM | 189 nM
10 | GUGUGAAGUUAGGAUAUGAUCGGACAAGAGCCUUCAGAAGGGACCACAUGAGGAUCACCCAUGUUGUCGGUGGC [Eternabot (L1) Solution 41] (Eterna round: R97, puzzle: Exclusion 6) |  | 20.5 nM | 18.6 nM |  |  | 
11 | GCGCGGACAGGAUAUACAUGAGGAUCACCCAUGUGUGAGGCUAACAGUGCCAACUCUGGUAGAAGGGUCCCGGG [EX3 B.19] (Eterna round: R97, puzzle: Exclusion 3) |  | 269 nM | 111 nM |  |  | 
12 | AGCUGUGGCCGAGGAUAUCUACAUGAGGAUCACCCAUGUAAAGGGUGUAUCGGGAAAACCUCGAUGGAGAAGGCGGUCUCAGCA [Eli eng2 - 047] (Eterna round: R96, puzzle: Exclusion NG 2) | 45.3 nM | 95.5 nM | 296 nM |  |  | 
13 | ACAUGUUGCGCAGGAUAUGGGACACAUGAGGAUCACCCAUGUGGUUUCAUGUCUAACCAAGCGUCCCAGAAGGGCGUGAACAUG [Ex NG2 #30] (Eterna round: R96, puzzle: Exclusion NG 2) | 20.8 nM | 41.8 nM | 19.9 nM |  |  | 
14 | ACUUACUGAGGAUAUACAUAGAUAAACAUGAGGAUCACCCAUGUUCCUAUAAGUAUAUAUGUAGAAGGCAGAAGAA [JR_Ex5_Sub074] (Eterna round: R97, puzzle: Exclusion 5) |  | 24.2 nM | 14.7 nM |  |  | 
15 | CUGAACUGAGGAUAUACAUGAGGAUCACCCAUGUGAUGUAGUGCACGCGUACGUGUACGUAGAAGGCAGUUCAG [Mat - Exclusion 3 - Eli Mod - D42] (Eterna round: R97, puzzle: Exclusion 3) |  | 56.1 nM | 19.8 nM |  |  | 
16 | GGUCGGCGAGGAUAUACAUGAGGAUCACCCAUGUGAUAGAGUGCACGCGUACGUGUAUGUAGAAGGCGCUGACG [JL-ex3-3.29 salish99 mod] (puzzle: Exclusion 3) |  |  |  | 34.2 nM | 160 nM | 66 nM
17 | CCCGUCGAUGUAGGAUAUGCCCGGGUCUCCCGGGCAGAAGGACAUGAGGAUCACCCAUGUUCGUGAGGAUCACCCAUGAAUGGG [Double but mutated MS2] (Eterna round: R96, puzzle: Exclusion NG 1) | 13 nM | 15 nM | 19.4 nM |  |  | 

Row | Sequence | apparent KD of MS2 coat protein [1] | apparent KD of MS2 coat protein (input ligand: FMN 200 uM) | apparent KD of MS2 coat protein (input ligand: none) | apparent KD of MS2 coat protein [2] | apparent KD of MS2 coat protein [3] | apparent KD of MS2 coat protein [4]
18 | GGUAGGUGUGACUUGGGUGACAUGAGGAUCACCCAUGUCACAAGCUUGUUGCUCGCCUUGUAGUUAACCCAUGUCAC [LRO Sensor-off var1-30 mod of Stov1-13-A1 by Brourd] (Eterna round: R97, puzzle: Sensor, turn-off variant 1) |  | 34.1 nM | 34.5 nM |  |  | 
19 | UUUUAACAUGAGGAUCACCCAUGUGAGGAUAUCGAAAUUUAUAUUAAUAUUAAUAAUACGAGAAGGCACAUUUU [JMF 22] (puzzle: Exclusion 1) |  |  |  | 71 nM |  | 
20 | AGAGAGUCAGGAUAUCGAAGGGAGAGGAAAGGAGAGAGGGACGAGAAGGGACAUGAGGAUCACCCAUGUAGGUG [JR_Exclusion4)Sub016] (puzzle: Exclusion 4) |  |  |  | 200 nM | 233 nM | 432 nM
21 | AAGCAGUCAGGAUAUCGUUAAUUUAGUUGUUUGUAUUAGUUCGAGAAGGGACAUGAGGAUCACCCAUGUAAGAA [Ex4 #43] (Eterna round: R97, puzzle: Exclusion 4) |  | 40.5 nM | 41 nM |  |  | 
22 | AAUACAAGCUAUUGAUCCCACAUGAGGAUCACCCAUGUUCCUGGCCGUGAGGCUAGGUAAACAAUAGCUCGUCUUAU [Sensor-V1 #42] (Eterna round: R97, puzzle: Sensor, turn-off variant 1) |  | 91.2 nM | 99.8 nM |  |  | 
23 | AGCUAGGCAGGAUAUACAUGAGGAUCACCCAUGUAAAUUUUUCGUUUAACUUGAAUGUGUAGAAGGGCCAUAAA [Ex3 #51] (Eterna round: R97, puzzle: Exclusion 3) |  | 23.9 nM | 22.4 nM |  |  | 
24 | ACAUGUUAUGUAGGAUAUUAGACACAUGAGGAUCACCCAUGUAACCGGAGGCUUUACUAUGAGUUUGAGAAGGGUAUGAACAUG [Ex NG2 #66] (Eterna round: R96, puzzle: Exclusion NG 2) | 45.4 nM | 78.1 nM | 92.1 nM |  |  | 
25 | CUUUAGUGAGGAUAUCGGUAGUAAUACAAUAGUAUUACUACUGAGAAGGCACAUGAGGAUCACCCAUGUUCCUC [Mat - Exclusion 4 - Mod of Omei - D82] (Eterna round: R96, puzzle: Exclusion 4) | 25.2 nM | 259 nM | 29.9 nM |  |  | 
26 | CCCGUGUAAGGAUAUCGUUCACUUGGCGAAAGUCGAGUGGACGAGAAGGUACAUGAGGAUCACCCAUGUACGGG [-36.1, -35.7 kcal, A 27%] (Eterna round: R97, puzzle: Exclusion 4) |  | 438 nM | 305 nM |  |  | 
27 | AGUAGUAGUAUCCGAUCUUACAUGAGGAUCACCCAUGUUUCUAGACGUGCACGCGAUGCUCGUCAGACUACCAGAUG [salish99_TOv1_r3_053] (puzzle: Sensor v3, turn-off variant 1) |  |  |  | 173 nM | 128 nM | 174 nM
28 | UCACACGGAGGAUAUACCGUCGGUCAUUGGUGUGACGUAUCACAUGAGGAUCACCCAUGUAGAAGGCCGUGCUU [Eternabot (L2) Solution 14] (Eterna round: R97, puzzle: Exclusion 2) |  | 394 nM | 208 nM |  |  | 
29 | GUAAUAGUGGUUAGGAUAUGCGAUCGAAAAUAGGUGCAGAAGGAACAUGAGGAUCACCCAUGUGCCUCCUCAAU [Eternabot (L1) Solution 6] (Eterna round: R97, puzzle: Brourd's mod of Exclusion 4) |  | 24.2 nM | 15.6 nM |  |  | 
30 | AAAAAACAAGGAUAUACGAAGGAUGAUUAUCUUAAUUUUUGACAUGAGGAUCACCCAUGUAGAAGGUGUUAAAA [JR_Exclusion2_Sub008] (puzzle: Exclusion 2) |  |  |  | 51.5 nM | 125 nM | 52.9 nM
31 | ACUUAUAGAGGAUAUACAGUUUAUUACAUGAGGAUCACCCAUGUUCUUCAAUGUCCUAAAGUAGAAGGCUAAGGAA [Mat - Exclusion 5 - Eli Mod - D12] (Eterna round: R97, puzzle: Exclusion 5) |  | 18.8 nM | 16.2 nM |  |  | 
32 | GAUUAUGCGAGCUUUAGGGACAUGAGGAUCACCCAUGUUCGUCUUGUUGAUCUAGGUGCACUGACAUACCUAAAUCU [JMF 88] (puzzle: Sensor v3, turn-off variant 1) |  |  |  | 27.7 nM | 20.9 nM | 22.4 nM
33 | UGUGCGUAUGUGAGGAUAUGCUGGUCCUUGGAUCAGCAGAAGGCACAUGAGGAUCACCCAUGUGGUGUCGUACC [salish99_Bmod_Ex4_002] (puzzle: Brourd's mod of Exclusion 4) |  |  |  | 243 nM |  | 
34 | AUAAAUAACGUUAGGAUAUAUUUUGUGACAUCAGGAUAGAAGGAACAUGAGGAUCACCCAUGUGAUUCUGUGAA [Maenin] (puzzle: Brourd's mod of Exclusion 4) |  |  |  | 37.2 nM | 46.6 nM | 40.3 nM
